In series [1] the target is T1, GST-MLC2a fusion protein, Q9QVP4.
T1 chain: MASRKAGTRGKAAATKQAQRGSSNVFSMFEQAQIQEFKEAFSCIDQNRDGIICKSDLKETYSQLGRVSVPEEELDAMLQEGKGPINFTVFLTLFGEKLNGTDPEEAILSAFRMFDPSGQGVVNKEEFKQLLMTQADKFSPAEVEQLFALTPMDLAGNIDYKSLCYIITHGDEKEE

In series [2] the target is T2, GST-MLC2v fusion protein, P08733.
T2 chain: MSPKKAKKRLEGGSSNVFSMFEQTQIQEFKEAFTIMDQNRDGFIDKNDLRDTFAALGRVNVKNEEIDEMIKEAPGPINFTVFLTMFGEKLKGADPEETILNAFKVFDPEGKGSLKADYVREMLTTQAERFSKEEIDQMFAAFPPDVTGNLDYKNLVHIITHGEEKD

B1: HA-tagged full length cardiac MLCK (protein)
chain: MYPYDVPDYASGVSEEDPEGLAPQGLPALGGACLATMDKKLNVLTEKVDRLLHFQEDVTEKLQCVCQGMDHLEQDLHRLEASRELSLAGSGSTPPTTAQAAWPEVLELVRAVRQEGAQHGARLEALFKMVVAVDRAITLVGSTFQNSKVADFIMQGTVPGRKGSLADGPEENKEQAEVAGVKPNHVLTTGGVQADASRTLWEESQKEDIPVRTVEGLPLIINTSLKGADLTQAGASLRQGVEVLGPGQVPLPTEAESRLPETASENTGATLELSVAIDRISEVLTSLKMSQGGGQETSSSKPDCWLSEEAMRLSSGPLPQPLGPLTPDSDIHSGDALPRIPINMQEMATPGELLETQSGSPIGSAEAPGLGTVLEDQIPKGARPFPPLPKRSSNNGGMSAEEEIGSGAEPMRGPSLATRDWRDETVGTTDLQQGIDPGAVSPEPGKDHAAQGPGRTEAGRLSSAAEAAIVVLDDSAAPPAPFEHRVVSIKDTLISAGYTVSQHEVLGGGRFGQVHRCTERSTGLALAAKIIKVKNVKDREDVKNEVNIMNQLSHVNLIQLYDAFESKSSFTLIMEYVDGGELFDRITDEKYHLTELDVVLFTRQICEGVHYLHQHYILHLDLKPENILCVSQTGHQIKIIDFGLARRYKPREKLKVNFGTPEFLAPEVVNYEFVSFPTDMWSVGVITYMLLSGLSPFLGETDAETMNFIVNCSWDFDADTFKGLSEEAKDFVSRLLVKEKSCRMSATQCLKHEWLSHLPAKASGSNVRLRSQQLLQKYMAQSKWKKHFHVVTAVNRLRKFPTCP
Turning to B1, the “in vitro kinase assay, incorporation of 32P” value in series [1] was “promotes incorporation of ^32P to GST-MLC2v and GST-MLC2a fusion proteins”. In addition, in series [2], the “Km (Lineweaver-Burk plot, 32P incorporation into GST-MLC2v; with Ca2+/calmodulin)” value is listed as 3.9±1.2 (with Ca^2+/calmodulin); the “Km (Lineweaver-Burk plot, 32P incorporation into GST-MLC2v; with EGTA)” value is given as 2.9±0.8 (with EGTA); the “Km (Lineweaver-Burk plot, 32P incorporation into GST-MLC2v; without EGTA and Ca2+/calmodulin)” value is “Km value of 4.3±1.5 µM”; the “in vitro kinase assay, incorporation of 32P” value was “promotes incorporation of ^32P to GST-MLC2v and GST-MLC2a fusion proteins”.

(Values after patent publication US20100129815.)
